# Data as given in patent publication US20150064751.
# Test system: cleavage control protein containing an enterokinase cleavage site (Asp-Asp-Asp-Asp-Lys)
substance,measurement,value
recombinant enterokinase (Novagen),"protease cleavage, detection of the 16 kDa cleavage fragment by immunoblot (2 h, room temperature)",The target protein was specifically cleaved by recombinant enterokinase (lane 2)
